Reference: patent publication US7361133B2, “Methods of detection utilizing modified bacteriophage” (The Johns Hopkins University, priority 1997, dated 2008)

What was measured:
[1] = target: T1, N-NR1 protein on cell surface of CHO cells (Rattus norvegicus, UniProt P35439); assay: Phage-immunostain of CHO cells expressing N-NR1 on cell surface; type: cell-based, Chinese hamster; conditions: 500 mM Mag-4.1 peptide
T1 construct: N-NR1 (aa. 1-561); expressed in transfected cells
Description: (§1) Immunostain and Fluorescence Activated Cell Sorting (FACS). The cells were grown on cover glass coated with 1% gelatin. Prior to addition of immunoglobulin, the cells were first washed three times with cold PBS and fixed with 2% paraformaldehyde (PFA) overnight. After washing the cells with cold PBS, the fixed cells were incubated with mAb8610 (1 mg /ml) at room temperature for 1 hour. The binding of mAb8610 was detected by incubating with anti-mouse conjugated with Texas-red (15 mg per ml) 1 hour at 4C. The immunostain was visualized by a Nikon Optiphot-2 fluorescent microscope and images were collected/digitalized using a computer. Cytometry of stained cells were analyzed on either FACScan or FACStar Plus Sorter (Becton-Dickinson, San Jose, Calif.). An Argon laser is used and tuned at 488 nm. The green fluorescence was recorded in the FLI emission channel.
(§2) Phage-immunostain and Phage-FACS detection. The purified phage preparation was used to stain live cells. For immunostain the cells were washed three times with cold PBS. Phage binding were initiated by incubating with the cells with purified phage (10^10 tu per ml) on ice for 1 hour. […] The phage-binding was detected first by rabbit anti-phage antibody (1:10,000 dilution) followed by Fluorescein labeled anti-rabbit antibody (10 mg/ml, Vector Lab, Calif.). The fluorescence labeled cells were visualized under a fluorescence microscope. […]

[2] = target: T2, functional NMDA receptor channels (NR1 and NR2A) in HEK cells (Rattus norvegicus, UniProt P35439); assay: Phage-immunostain of HEK cells transiently expressing NR1 and NR2A; type: cell-based; conditions: 500 mM synthetic Mag-4.1 peptide
T2 construct: expressed in transfected cells; host or cells: HEK cells, transient cotransfection
Description: Phage-immunostain and Phage-FACS detection. The purified phage preparation was used to stain live cells. For immunostain the cells were washed three times with cold PBS. Phage binding were initiated by incubating with the cells with purified phage (10^10 tu per ml) on ice for 1 hour. After incubation, the unbound phage was removed by three washes of cold PBS supplemented with 1% bovine serum albumin (BSA). the fixation was carried out using 2% PFA overnight at 4C. The phage-binding was detected first by rabbit anti-phage antibody (1:10,000 dilution) followed by Fluorescein labeled anti-rabbit antibody (10 mg/ml, Vector Lab, Calif.). The fluorescence labeled cells were visualized under a fluorescence microscope. For Phage-FACS, the cell preparation procedures were identical except the cells were first dislodged from the dishes by incubating with PBS supplemented with 5 mM EDTA.

[3] = target: T3, N-NR1 (NH2-terminal domain of NR1, a.a 1-561) fusion protein (Rattus norvegicus, UniProt P35439); assay: Phage ELISA, binding to immobilized N-NR1 fusion protein; set-up: Inhibition of Mag-4.1 phage binding to N-NR1 by synthetic peptide: dose or concentration left out as unconfirmed
T3 construct: N-NR1 (aa. 1-561); made in house
Description: Phage selection. Six wells of a 96-well plate were precoated with mAb8610 ([…]) at 37° C. for one hour, blocked with 1% BSA for 30 minutes at 37° C. The N-NR1 fusion protein was first released by PIPLC digest after extensive washes of cells that express N-NR1. The released N-NR1 protein in the MEM medium was first treated by endo-F (1 unit per 10 mg protein) for overnight at 37° C. The treated preparation was affinity-purified by mAb8610 capture on the plates (1 mg of N-NR1 per well) at 22° C. for one hour. The phage binding was carried out by incubating with a total of 10^12 tu (transducing units) of a X9 library with a complexity of 1.2×10^10 recombinants. The binding buffer contains 10 mM Tris-HCl (pH 8.1), 100 mM NaCl and 1 mM EDTA for 3 hours at 4° C. Unbound material was removed with three washes of the binding buffer. The bound phagemid particles were recovered by adding […] of 0.1 M glycine-HCl (pH 2.2). After 10 minutes elution at room temperature, the elutes were immediately neutralized by mixing with equal volume of 0.1 M Trisbase (pH 9.2). The recovered phagemids were amplified in bacteria, and resultant phage preparations were used for the following round of purification.
After five consecutive rounds of selection, the ELISA tests were performed using the supernatant of overnight cultures in the presence of 100 mM Hepes-NaOH (pH7.5) and 100 mM NaCl. The wells were coated with receptors according to the procedure described above. The bound phage particles were first detected by using rabbit anti-phage antibody (1:10,000) followed by alkaline phosphatase (AP)-conjugated secondary antibody (1:5,000, Sigma). After washing the wells with the binding buffer, […] of developing solution containing 1 mg/ml pNPP (Sigma, Mo.) in 10 mM diethanolamine-HCl (pH 9.7) was added. The alkaline phosphatase activity was monitored at the wavelength of 408 nm using a microtiter plate reader. Phage purification. The bacteria in culture medium containing phage was removed by centrifugation at 5,000×g for 30 minutes. […]

[4] = target: T4, N-NR1 protein on CHO cells (Rattus norvegicus, UniProt P35439); assay: Phage-FACS of CHO cells expressing N-NR1; type: cell-based, Chinese hamster
T4 construct: N-NR1 (aa. 1-561); expressed in transfected cells
Description: as §1, §2

[5] = target: N-NR1 fusion protein (putative amino-terminal domain of NR1, a.a 1-561, fused to the mAb8610 epitope tag and GPI anchor signal sequence) (UniProt P35439); assay: phage-overlay on nitrocellulose after denaturation-renaturation

GGGLNDWFITYIGGG [Mag-4.1 peptide]
Inhibition of phage staining signal by synthetic peptide [1]: completely inhibited | Inhibition of phage stain signal on NR1/NR2A HEK cells by synthetic peptide [2]: completely inhibited | Affinity of monovalent peptide ([3]; competition phage ELISA (FIG. 1C)): low affinity | Inhibition of Mag-4.1 phage binding to N-NR1 by synthetic peptide ([3]; synthetic peptide, phage ELISA): completely inhibited | Inhibition of FACS phage stain signal by synthetic peptide, low N-NR1 CHO cells ([4]; 500 mM Mag-4.1 peptide (FIG. 5C)): completely inhibited | Effect of synthetic peptide on FACS staining signal, 1:1 mixture of low and high N-NR1 CHO cells ([4]; 500 mM Mag-4.1 peptide (FIG. 5E)): the staining signal is sensitive to Mag-4.1 peptide

LEAWFLQYI [Mag-4.2]
Phage binding to N-NR1 ([3]; phage ELISA, immobilized N-NR1): specifically association with N-NR1

LNDWFITYI (peptide, not shown: large carriers) [Mag-4.1 phage]
least amount of N-NR1 protein per lane at which specific binding is detected [5]: 20 ng
